The nanobody polyreactivity screen of Harvey et al. (2022)

Test: yeast display, Sf9 membrane polyspecificity reagent, FACS + sequencing; frameworks hold sequencing errors
Outline: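 Nanobodies came from a synthetic yeast display library in Saccharomyces cerevisiae BJ5465, induced with galactose for 36–48 hours and stained for 1 hour at 4 °C with 10% biotinylated, detergent-solubilized Sf9 membrane reagent. Cells were enriched on streptavidin microbeads and then FACS-sorted, with low and high (top ~1%) gates set on anti-HA fluorescence for expression and streptavidin fluorescence for reagent binding. Each polyreactivity label reflects the gate a clone came from. Genes were amplified by colony PCR, sequenced by MiSeq 2 × 250 and filtered by CDR length.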

| Sequence | polyreactivity (PSR sort gate) |
| --- | --- |
| QVQLVESGGGLVKAGGSLRLSCAASGSTFSRYAMGWYRQAPGKEREFVADITFRTSSTNYADSVKGRFTISRDNAKNTVYLQMNSLKPEDPAVYYCATDTQYKSYAHDYWGQGTQVTVSS | low polyreactivity |
| QVQLVESGGGLVKAGGSLRLSCAPSGSSFYYAMGWYRQAPGKERELVAAINSGGSTNYADSVKGRFTISRDNAKNTVYLQMNSLKPEDTAVYYCAADLYGYWWSFDYDYWGQGTQVTVSS | low polyreactivity |
| QVQLVESGGGLVKAGGSLRLSCDASGLTFNANPMGWYRQEPGKESELVAAIDWIGVSTYYADSVKGRFTISRDNAKNTVYLQMNSLKPEDTAVYYCAAEYDYNFGGNDLWYYYWGQGTQVTVSS | high polyreactivity |
| QVQLVESGGGLVKAGGSLRLSFAAYGSNFPRYALGWYRQATGKERELVASITSDGGSTYYADSVKGRFTISRDNAKNTVYLQMNSLKPEDTAVYYCNKVPYRGYRRYGYWGQGTQVTVSS | high polyreactivity |
| QVQLVESGGGLVKAGGSLRLSSAASGRTFKWYAMGWSRQAPGKERELVAVITGRGGSTYYADSVKGRFTISRDNAKNTVYLQMNSLKPEDTAVYSCAARGYSLVASSLYYYWGQGTQVTVSS | high polyreactivity |
| QVQLVESGGGLVKAGGSLRLSSDASGSISKSYAMGWYRQAPGKERELVAVITSGGNTYYADSVKGRFTISRDNAKNTVYLQMNSLKPEDTAVYYCAAKSGRGRTMDYWGQGTQVTVSS | high polyreactivity |
| QVQLVESGGGLVKAGGSLRLTCAASGRIFVNYAMGWYRQAPGKEMELVAAINWSGGRTYYADSVKGRFTISRDNAKNTVYLQMNSLKPEDTAVYYCAAEWEGTYTTVPDEFNYWGQGTQVTVSS | high polyreactivity |
| QVQLVESGGGLVKAGGSLSLSCAASGFIFVNNVMGWYRQAPGKERELVAAISRRGGSTYYADSVKGRFTISRDNAKNTVYLQMNSLKPEDTAVYYCARRGPDFSWKYDYWGQGTQVTVSS | high polyreactivity |
| QVQLVESGGGLVKARGSLRLSFAASGSTFLVYAMGWYRQAPGKEREFVAAITWSGGYTYYADSVKGRFTISRDNAKNTVYLQMNSLKPEDTSVYYSAAEIQRTYSWEYPYEMYWGQGTQVTVSS | high polyreactivity |
| QVQLVESGGGLVLAGGRLRLSCAASGRTFYVYTMGWYRQAPGKEWELVAGISYSGGSTYYADSVMGRFTISRDNAKNTVYLQMNSLKPEDTAVYYCNAELYCPYFDGKTRHGGYWGQGTQVTVSS | low polyreactivity |
| QVQLVESGGGLVLAGGSLRLSCAASGFTFFIYVMGWYRQAPGKEREFVAAISSSGDSTYYADSVKGRFTISRDNAKNTVYLQMNSLKPEDTAVYYCNAGDKFSSYWYDYWGQGTQVTVSS | low polyreactivity |
| QVQLVESGGGLVLAGGSLRLSCAASGFTFRKNAMGWYRQARGKERELVAAINSSGGSTYYADSVKGRFTISRDNAKNTVYLQMNSLKPEDTAVFYCNAVGRSLARPRGDYWGQGTQVTVSS | high polyreactivity |
| QVQLVESGGGLVLAGGSLRLSCAASGNILIGNVMGWYRPAPGKERELVAAITSGGDTYYADSVKGRFTISRDNAKNTVYLQMNSLNPEDTAVYYCAADRPGQPKYEYWRQGTQVTVSS | low polyreactivity |
| QVQLVESGGGLVLAGGSLRLSCAASGRIFRGYAMGWYRQAPGKERELVAGITWGAGRTYYADSVKGRFTISRDNAKNTVYLQMNSLKPEDTAVYYCAAYYSQDSRRKYDYWGQGTQVSVSS | high polyreactivity |
| QVQLVESGGGLVLAGGSLRLSCAASGRIFRWYAMGWYRQAPGKERELDATISSTGGSTYYADSVKGRFTISRDNAKNTVYLQMNSLKPEDTAVYYCNAVVYGIFLYAWYDYWGQVTQVTVSS | low polyreactivity |
| QVQLVESGGGLVLAGGSLRLSCAASGRTFIGYALGWYRQAPGKERELVAAISPGGSTKYADSVKGRFTISRDNAKNTVYLQINSLKPEDNAVYYGAVGWSYYAGLRHRYYSGFDYWGQGTQVTVSS | low polyreactivity |
| QVQLVESGGGLVLAGGSLRLSCAASGRTFKENAKGWYRQAPGKARELVAVINSGGRTYYAVSVKGSFTISRDNAKNTVYLQMNSLKPEDSAVYYCAAYSRSKESGYWGQGTQVTVSS | high polyreactivity |
| QVQLVESGGGLVLAGGSLRLSCAASGRTYYAYTMGWYRKAPRKERELVAAISGSGSTTYYADSVKGRFTISRDNAKNTVYLQMNSLKPEDTAVFYCAADFFAGTQRTFDYWGQGTQVTVSS | high polyreactivity |
| QVQLVESGGGLVLAGGSLRLSCAASGSIFGGYAMGWYRPAPGKERELVAAISSGDSTYYADSVKGRFTISRDNAKNTVYLQINSLKPEDTAVYYCAAAFFARDRKRYNYWGQGTQVTVSS | high polyreactivity |
| QVQLVESGGGLVLAGGSLRLSCAASGSIFKNYAMGWYGQAPGKVRELVAAITRGTYYADSVKGRFTISRDNAKNTVYLQMNSLKPEDTAVYYCNREYWGRGYYRVRGEYDYWGQGTQVTVSS | low polyreactivity |
| QVQLVESGGGLVLAGGSLRLSCAASGSILTFYAMGWYRQAPGKERELVARITLIVARTNYADSVKARFTISRDNAKNTVYLQMNSLKPEDTAVYYCAKRDGDSGIGFGYWGQGTQVTVSS | low polyreactivity |
| QVQLVESGGGLVLAGGSLRLSCAASGSTFVQNAMGWYRQAHGKERELVAAITFGGGSTYYADSVKGRFTISRDNAKNTVYLQMNSLKPEDTAVYYCAVEVGNPQLAYSYDYWGQGTQVTVSS | low polyreactivity |

| Sequence | polyreactivity (PSR sort gate) |
| --- | --- |
| QVQLVESGGGLVLAGGSLRLSCAASGSTFVYYAMGWYRQAPGKERELVAAISRSGGSTYYADSVKGRFTISRDNAKNTVYLQMNSLKPEDTAVYYCAAKVRFTRRYDYWGQGTQVTVSS | high polyreactivity |
| QVQLVESGGGLVLAGGSLRLSCPASGSIFGGYAMGWYRQAHGKERELVAAISYRGASTYYADSVKGRFTISRDNAKNTVYLQMNSLKPEDTAVYYCAVAARTRARVLYGYDYWGQGTQVTVSS | low polyreactivity |
| QVQLVESGGGLVPAGGSLRLSCAASGFIFHGYAIGWYREAPGKEMELVAAISGTGGSTYYADSVKGRFTISRDNAKNTVYLQMNSLKPEDTAVYYCNARRVRSDRRGGDYWGQGTQVTVSS | high polyreactivity |
| QVQLVESGGGLVPAGGSLRLSCAASGLTFGRYAMRSYRQAPGKEREMVARISRSGGRTYYADSVKGRFTISRDNAKNTVYLQMNSLKPEDTAVYYCAATGSYYGGDHDYWGQGTQVTVSS | high polyreactivity |
| QVQLVESGGGLVPAGGSLRLSCAASGLTIYHYAMGWYRQAPGKERELVAAISYSGGSTYYADSVKGRFTISRDNAKNTVYLQMNSLKPEDTAVYYCAAYARHYGTSSLRYDYWGQGTQVTVSS | high polyreactivity |
| QVQLVESGGGLVPAGGSLRLSCAASGRIYARNAMGWYRKAPGKERDLVAAISSRGSSTYYADSVKGRFTISRDTAKNTVSLQMNSLKPEDTAVYYCNAYYSVYPPGYDYWGQGPQVTVSS | high polyreactivity |
| QVQLVESGGGLVPAGGSLRLSCAASGRSLSRYTMGWYRQAPGKERELVAAISTSGSTYYADSVKGRFTISRDNAKNTVYLQMNSLKPEDTAVYFCNAVRRYLQYATGYAYWGQGTQVTVSS | high polyreactivity |
| QVQLVESGGGLVPAGGSLRLSCAASGRTFRFNAMGWYRQAPGKERELVAAITKSSGSTDYADSVKGRFTISRDNAKNTVYLQMNSLKPEDSAVYYCAVRIFVPYYSDWSFPTQYNYWGQGTQLTVSS | high polyreactivity |
| QVQLVESGGGLVPAGGSLRLSCAGSGFIFYKYAMGWYRQAPGKERELVAAITRGGSTNYADSVKGRFTSSRDKAKNTVYLQMNSLKPEDTAVYYCAAGNRYGVRQLYQIVTRYYWGQGTQVTVSS | high polyreactivity |
| QVQLVESGGGLVPAGGSLRLSWAASGRTFTRNAMGWYRQAPGKERELVAVITSSGRTNYADSVKGRVTISRDNAKNTVYLQMNSLKPEDTAVYYCNKVSARYPYPLYDYWGQGTQVTVSS | high polyreactivity |
| QVQLVESGGGLVPARGSLRLSCAASGFIFSDNAMGWYRQAPGKERELVAAITDDGDTTYYADSVKGSFTISRDNAKNTVYLQMISLKPEDTAVYYCATEIEDVEDSGPYYYVGYGYWGQGTQVTVSS | high polyreactivity |
| QVQLVESGGGLVPARGSLRLSCAASGRIFRYYAMGWYRQAPGKERELVAAISGNGGRTSYADSVKGRFTISRDNAKITVSLQMTSLKPEDTAVYYCNAASVNGCRDFDYWGQGTQVTVSS | high polyreactivity |
| QVQLVESGGGLVPSGGSLRLSCAASGGIFYFNAMGWYRQAPGKERELVASITWSGGNTYYADSVKGRFTISRDNAKNTVSLQMNSLKPEDTAVYYSAADTQEYRPTYDYWGQGTQVTVSS | low polyreactivity |
| QVQLVESGGGLVQAAGSLLLSCAASGSTFYYYAMGWYRQAPRKDRELVAAISRGGGSTYYADSVKGRFTISRDNAKTTVYLQMNSLKPQDTAVYYCYVSRFDSWGQGTKVTVSS | high polyreactivity |
| QVQLVESGGGLVQAAGSLRLICAASGRIFDVYAMGWYRPAPGKERELVAAITWSGTSTYYADSVKGRFTISRDNAKNTVYLQMNSLKPEDTAVYYCAAEVAYTDTEYFWYYYWGQGTQVTVSS | high polyreactivity |
| QVQLVESGGGLVQAAGSLRLSCAASGFIFRYNVMGWYRQAPGKERELVAAISTSGGRTYFADSEKGRFTISRDNAKNTGYLQMNSLKPEDTEVYYCNAVKSEGQKVRDGYYWGQGTQVTVSS | high polyreactivity |
| QVQLVESGGGLVQAAGSLRLSCAASGLTFGGYPMGWYRQAPGKERELVAAISRSCGSTYYADSVKGRFTISRDNAKNTVYLQMNSLKPEDTAVSYCNAGRDTKYDYWGQGTQVTVSS | low polyreactivity |
| QVQLVESGGGLVQAAGSLRLSCAASGLTFRVNDMGWYRQAPGKERELVATISSGGSTYYADSVKGRFTISRDNAKNTVYLQMNSLKAVDTAVYYCATNSEGQESNSYYVWMGYWGQGTKVTVSS | low polyreactivity |
| QVQLVESGGGLVQAAGSLRLSCAASGRTFRAYAMGWYRQAPGKERELVAAISNRGTRTYYADSVKGRFTISRDNAKNTVYLQMNSLKPEDTAVYYCAAGNRVNRFDYWGQGTQVTVSS | high polyreactivity |
| QVQLVESGGGLVQAAGSLRLSCAASGSIFLSYAMGWYRQAPGKERELVAAITTDGGTNYADSVKGRFTISRDNAKNTVYLQMNSLKPEDSAVYYCAADSDPIPLIDYTLPMDYWGQGTQVTVSS | low polyreactivity |
| QVQLVESGGGLVQAAGSLRLTCAASGRTFYDNVKGWYRQAPGKERELVAAISSGGSTNYADSVKGRFTISRDNAKNTVYLQMNSLKPEDTAVYYCATTGGGGWAYEYWGQGTQVTVSS | low polyreactivity |
